Experiments:
[1] = system: Staphylococcus aureus, NRS-14; experiment: plate lysis assay (spectrum of lytic activity); assay type: cell-based; design: key to strength of lytic zone: strong lytic zone = ++; weak lytic zone = +; no lytic zone = −; conditions: 6 μg
Experimental: (§1) The PlyGRCS spectrum of lytic activity was performed (Schmelcher M et al. (2012) Chimeric phage lysins act synergistically with lysostaphin to kill mastitis-causing Staphylococcus aureus in murine mammary glands. Appl Environ Microbiol 78(7):2297-305) with minor modifications. Bacterial cells were diluted in sterile PBS to an OD600=1, and 100 μl was spread on each plate. 10 μl spots (600 μg/ml) of PlyGRCS or CHAPGRCS were applied. Plates were incubated overnight at 37° C. Strength of lytic zones was defined qualitatively.

[2] = system: Staphylococcus aureus, NRS-384; experiment: plate lysis assay (spectrum of lytic activity); assay type: cell-based; design: key to strength of lytic zone: strong lytic zone = ++; weak lytic zone = +; no lytic zone = −; conditions: 6 μg; S. aureus NRS-384, MRSA
Experimental: as §1

[3] = system: Staphylococcus aureus, NRS-71; experiment: plate lysis assay (spectrum of lytic activity); assay type: cell-based; design: key to strength of lytic zone: strong lytic zone = ++; weak lytic zone = +; no lytic zone = −; conditions: 6 μg
Experimental: as §1

[4] = system: Staphylococcus epidermidis, NRS-101; experiment: plate lysis assay (spectrum of lytic activity); assay type: cell-based; design: key to strength of lytic zone: strong lytic zone = ++; weak lytic zone = +; no lytic zone = −; conditions: 6 μg
Experimental: as §1

Bacillus pumulis, BJ0055 = experiment: plate lysis assay (spectrum of lytic activity); assay type: cell-based; design: key: strong lytic zone = ++; weak lytic zone = +; no lytic zone = −; conditions: 6 μg
Experimental: as §1

[5] = system: Staphylococcus aureus, NRS-382; experiment: plate lysis assay (spectrum of lytic activity); assay type: cell-based; design: key: strong lytic zone = ++; weak lytic zone = +; no lytic zone = −; conditions: 6 μg; S. aureus NRS-382, MRSA
Experimental: as §1

[6] = system: Streptococcus pyogenes, D471; experiment: plate lysis assay (spectrum of lytic activity); assay type: cell-based; design: key: strong lytic zone = ++; weak lytic zone = +; no lytic zone = −; conditions: 6 μg
Experimental: as §1

[7] = system: Streptococcus suis, 730082; experiment: plate lysis assay (spectrum of lytic activity); assay type: cell-based; design: key: strong lytic zone = ++; weak lytic zone = +; no lytic zone = −; conditions: 6 μg
Experimental: as §1

[8] = system: Streptococcus uberis, ATCC 700407; experiment: plate lysis assay (spectrum of lytic activity); assay type: cell-based; design: key: strong lytic zone = ++; weak lytic zone = +; no lytic zone = −; conditions: 6 μg
Experimental: as §1

[9] = circular dichroism melting experiments; assay type: physicochemical; conditions: 0.1 mg/ml, 20 mM sodium phosphate buffer pH 7, 20-95° C. at 1° C./min
Experimental: CD experiments for wild-type (WT) and active-site mutants were performed on a Chirascan CD spectrometer (Applied Photophysics) equipped with a thermoelectrically controlled cell holder. CD spectra were obtained in the far-UV range (190-260 nm) in a 1 mm path length quartz cuvette at 1 nm steps with 5 second signal averaging per data point. Spectra were collected in triplicate, followed by averaging, baseline subtraction, smoothing and conversion to mean residue ellipticity (MRE) by the Pro-Data software (Applied Photophysics). Secondary structure prediction was performed using the Provencher and Glockner method (Provencher S W & Glockner J (1981) Estimation of globular protein secondary structure from circular dichroism. Biochemistry 20(1):33-7) provided by DICHROWEB (Whitmore L & Wallace B A (2004) DICHROWEB, an online server for protein secondary structure analyses from circular dichroism spectroscopic data. Nucleic Acids Res 32:W668-73).
Melting experiments were performed by heating PlyGRCS at a 0.1 mg/ml concentration in 20 mM sodium phosphate buffer pH 7 from 20° C. to 95° C. using a 1° C./min heating rate. MRE was monitored at 218 nm in a 1 mm path length quartz cuvette at 0.5° C. steps with 5 second signal averaging per data point. The melting data was smoothed, normalized and fit with a Boltzmann sigmoidal curve. The first derivative of the melting curve was then taken to determine the temperature (Tm) at which the folded and unfolded protein species in solution were at equilibrium (Fallas J A & Hartgerink J D (2012) Computational design of self-assembling register-specific collagen heterotrimers. Nat Commun 3:1087).

[10] = system: S. aureus NRS-14 static biofilms; experiment: biofilm assay (crystal violet staining); assay type: cell-based, Staphylococcus aureus; conditions: 6.25 μg/ml, 1 hour, 1 day biofilms
Experimental: An overnight culture of S. aureus NRS-14 (1 ml per well) was placed into 24-well CELLBIND plates (Corning) containing 500 μl of TSB per well. After an additional 24 hour incubation at 37° C., media was aspirated and samples were washed with PBS to remove unattached cells. Two-fold serial dilutions of PlyGRCS in triplicate were added in 1 ml BP buffer pH 7 and incubated at 37° C. for one hour. Liquid was aspirated and samples were washed with distilled water before drying. Biofilms were stained with 0.01% crystal violet for 10 min at room temperature. After removing the excess crystal violet, samples were washed with PBS and dried before the addition of 1 ml 10% SDS to extract the crystal violet from the biomass for quantification at OD595.

[11] = system: S. aureus NRS-14 (VISA strain); experiment: bactericidal analysis (CFU counts, MBC); assay type: cell-based, Staphylococcus aureus; conditions: 1 hour, stationary phase
Experimental: Sterile-filtered PlyGRCS was 2-fold serially diluted in PBS supplemented with 1 mM CaCl2 and an equal volume of either various concentrations of enzyme or buffer only was added to 10^5 S. aureus NRS-14 in a microtiter plate. Samples were incubated at 37° C. for 1 hour, then serially diluted, plated on TSB agar, and incubated overnight at 37° C. to obtain CFU counts. The MBC (minimum bactericidal concentration) was determined as the minimum concentration of enzyme that killed ≧99.9% of bacteria.
It has been noted that the minimal inhibitory concentration (MIC) assay may not be the most appropriate assay to measure endolysin efficacy due to the speed at which the enzyme acts (Kusuma C M et al. (2005) Comparison of four methods for determining lysostaphin susceptibility of various strains of Staphylococcus aureus. Antimicrobial agents and chemotherapy 49(8):3256-63). Therefore, we employed the minimum bactericidal concentration (MBC) assay, which is the lowest concentration of enzyme that kills ≧99.9% (i.e. 3 logs) of the test inoculum (Jones R et al. (1985) Susceptibility tests: microdilution and macrodilution broth procedures. In: Balows A, Hausler J, Shadomy H (eds) Manual of Clinical Microbiology. American Society for Microbiology, Washington, D.C., pp 972-7).

[12] = system: S. aureus NRS-14 peptidoglycan; experiment: dinitrosalicylic acid (DNSA) assay for reducing sugars; assay type: biochemical, Staphylococcus aureus; conditions: 50 μg/ml, one hour, 37° C.

B1: PlyGRCS: endolysin of bacteriophage GRCS (ORF15), amino acids 1-250, SEQ ID NO: 5, C-terminal 6× His tag (protein)
chain: MKSQQQAKEWIYKHEGTGVDFDGAYGFQCMDLAVAYVYYITDGKVRMWGNAKDAINNDFKGLATVYENTPSFKPQLGDVAVYTNSQYGHIQCVISGNLDYYTCLEQNWLGGGFDGWEKATIRTHYYDGVTHFIRPKFSASNSNVLETSKVNTFGNWKQNQYGTYYRNENATFTCGFLPIFARVGSPKLSEPNGYWFQPNGYTPYDEVCLSDGLVWIGYNWQGTRYYLPVRQWNGKTGNSYSIGLPWGVFS
modifications: C-terminal 6xHis tag; Synthetically generated polypeptide (PlyGRCS phage (S. aureus))
lytic activity on plates (in words) ([1]; S. aureus NRS-14): greatest strength | strength of lytic zone ([1]; S. aureus NRS-14, VISA): ++ | strength of lytic zone [2]: + | lytic activity on plates (in words) ([3]; S. aureus NRS-71): greatest strength | strength of lytic zone ([3]; S. aureus NRS-71, MRSA): ++ | lytic activity on plates (in words) ([4]; S. epidermidis NRS-101): greatest strength | strength of lytic zone ([4]; S. epidermidis NRS-101, MRSE): ++ | strength of lytic zone (Bacillus pumulis, BJ0055): − | strength of lytic zone [5]: + | strength of lytic zone [6]: − | strength of lytic zone [7]: − | strength of lytic zone [8]: − | Tm [9]: 43.5 °C | decrease in biofilm biomass [10]: ~50% | reduction of bacterial counts ([11]; 6.25 μg/ml): 2 logs | log decrease ([11]; 12.5 μg/ml): 2.5 log | log killing ([11]; 25 μg/ml): 3 log | glycosidase activity (reducing sugar release) [12]: did not show any glycosidase activity

Source: patent US9872893B2, “Endolysins active against Staphylococcus bacteria, pharmaceutical compositions, and methods relating thereto” (priority 2014, dated 2018)
